Experimental data published in PMC7587174, “ACE Inhibitory Activity and Molecular Docking of Gac Seed Protein Hydrolysate Purified by HILIC and RP-HPLC” (Molecules, 2020).
Read-outs that look alike come from different tables or passages of the source. Residues, ends and D or L forms follow the SMILES beside them. No end group written: not given here.

B1: ALVY (peptide)
peptide: ALVY
B2: LLVY (peptide)
peptide: LLVY
B3: LLAPHY (peptide)
peptide: LLAPHY
B4: LSTSTDVR (peptide)
peptide: LSTSTDVR

Tests used:
[1] = target: angiotensin I-converting enzyme (ACE) (Homo sapiens, UniProt P12821); test: In vitro ACE inhibitory assay (HHL substrate, RP-HPLC detection); format: biochemical; settings: synthetic peptides, purity >95%; HHL substrate 2.5 mM (30 µL), ACE 0.05 mU/µL (20 µL), pre-incubation 37 °C 5 min, incubation 37 °C 30 min; HPLC-UV 228 nm; non-linear regression, nine concentrations, repeated three times; read-out: IC50 of synthetic peptides against ACE
angiotensin I-converting enzyme (ACE), sequence (P12821 30-1306, species assumed): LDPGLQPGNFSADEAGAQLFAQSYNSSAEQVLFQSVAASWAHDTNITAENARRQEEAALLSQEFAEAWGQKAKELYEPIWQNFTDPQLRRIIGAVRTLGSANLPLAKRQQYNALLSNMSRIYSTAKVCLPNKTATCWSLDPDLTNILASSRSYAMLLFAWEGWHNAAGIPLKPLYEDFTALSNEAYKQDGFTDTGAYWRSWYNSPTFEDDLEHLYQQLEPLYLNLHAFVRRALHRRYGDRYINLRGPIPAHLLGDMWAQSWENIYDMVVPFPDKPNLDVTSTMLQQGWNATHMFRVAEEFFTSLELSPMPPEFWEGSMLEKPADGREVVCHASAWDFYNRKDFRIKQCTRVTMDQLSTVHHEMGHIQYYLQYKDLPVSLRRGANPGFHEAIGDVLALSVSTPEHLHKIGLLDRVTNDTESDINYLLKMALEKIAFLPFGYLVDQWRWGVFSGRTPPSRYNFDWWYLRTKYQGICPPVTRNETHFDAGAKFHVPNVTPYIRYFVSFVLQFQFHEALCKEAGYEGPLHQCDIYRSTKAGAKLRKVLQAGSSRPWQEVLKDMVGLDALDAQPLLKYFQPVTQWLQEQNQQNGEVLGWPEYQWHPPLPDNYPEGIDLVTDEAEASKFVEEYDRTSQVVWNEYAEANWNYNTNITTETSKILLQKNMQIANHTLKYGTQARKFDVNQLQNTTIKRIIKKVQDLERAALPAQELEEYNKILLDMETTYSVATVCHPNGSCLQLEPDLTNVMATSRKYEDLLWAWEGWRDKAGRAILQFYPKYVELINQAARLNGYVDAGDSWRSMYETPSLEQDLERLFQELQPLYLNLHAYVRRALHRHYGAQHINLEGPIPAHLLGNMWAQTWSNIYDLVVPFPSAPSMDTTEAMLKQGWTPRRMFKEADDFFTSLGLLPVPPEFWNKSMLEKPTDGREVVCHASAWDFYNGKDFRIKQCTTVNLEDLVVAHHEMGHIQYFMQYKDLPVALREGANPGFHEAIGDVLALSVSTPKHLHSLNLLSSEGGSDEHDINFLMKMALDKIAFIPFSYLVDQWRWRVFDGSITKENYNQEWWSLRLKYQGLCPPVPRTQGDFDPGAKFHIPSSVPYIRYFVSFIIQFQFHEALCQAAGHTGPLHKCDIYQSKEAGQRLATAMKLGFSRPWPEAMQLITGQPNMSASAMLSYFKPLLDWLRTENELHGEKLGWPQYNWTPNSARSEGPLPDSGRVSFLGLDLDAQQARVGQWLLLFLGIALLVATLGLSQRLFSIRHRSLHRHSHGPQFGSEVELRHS
Description: The method to determine the ACE inhibitory activity of gac seeds peptides hydrolysate was adapted according to a previous report with slight modification. Briefly, the sample dissolved in ddH2O (10 µL) was added to 2.5 mM hippuryl-L-histidyl-L-leucine (30 µL). Borate buffer (10 µL) was used as blank solution. In total, 50 µM Captopril (10 µL) was used as positive control. The samples, blank, and positive control were incubated at 37 °C for 5 min. Then, 0.05 mU/µL of ACE (20 µL) was added into each solution. The reaction mixture was incubated at 37 °C for 30 min and mixed in a shaker incubator at 200 rpm for 30 min. The reaction was stopped by adding 1 N HCl (60 µL). After, 0.25 mg/mL ferulic acid (10 µL) was added as an internal standard. Samples were centrifuged (Hitachi Koki Co., Ltd., Tokyo, Japan) at 15,000 rpm for 2 min. The samples were separated by RP-HPLC using a C18 column (4.6 mm × 250 mm, particle size 5 µm) (Macherey-Nagel, Duren, Germany). Samples were selected using an isocratic gradient of 95% solvent A and […] solvent B at a flow rate of 1 mL/min. Solvent A was prepared by 5% acetonitrile + 0.1% trifluoroacetic acid and solvent B was prepared by 95% acetonitrile + 0.1% trifluoroacetic acid. Absorbance was measured using a UV detector at 228 nm. ACE inhibitory activity (%) was examined in triplicate and calculated according to the following equation:ACE-inhibitory activity (%) = [1 − (ΔAinhibition)/(ΔAcontrol)] × 100%, where ΔAinhibition and ΔAcontrol are the peak areas in the sample with or without inhibitor.
The definition of IC50 is the peptide concentration required to inhibit 50% of angiotensin-converting enzyme. The IC50 was calculated using non-linear regression of the ACE inhibitory activity (%) from nine different concentrations. This assay was repeated three times for each experiment.

[2] = target: T1, ACE (Homo sapiens, UniProt P12821); test: Kinetics of ACE inhibition (Lineweaver-Burk plot); format: biochemical; settings: with increasing ALVY concentration
T1 sequence (P12821 30-1306, species assumed): as above
Description: Kinetics of ACE inhibition was determined by a previous method with some modifications. The hydrolysis rate of HHL by ACE over a range of HHL concentrations of 0.005, 0.1, 0.5, 1, and 2 mM was measured while varying the concentrations of ALVY. The modes of ACE inhibition were determined from Lineweaver-Burk plots while inhibition parameters (Vmax and Km) were calculated, respectively, as the Y- and X-axis intercepts of the primary plot.

[3] = target: T1, ACE; design: method as in 6 sources, ref 38 = [38]; PMID 31264418; doi:10.1021/acs.jafc.9b01922; 38. Shih Y.H. Chen F.A. Wang L.F. Hsu J.L. Discovery and study of novel antihypertensive peptides derived from cassia obtusifolia seeds J. Agric. Food Chem. 2019 67 7810 7820 10.1021/acs.jafc.9b01922 ||| ref 39 = [39]; PMID 26948626; doi:10.1016/j.foodchem.2016.02.097; 39. Gangopadhyay N. Wynne K. O’Connor P. Gallagher E. Brunton N.P. Rai D.K. Hayes M. In silico and in vitro analyses of the angiotensin-I converting enzyme inhibitory activity of hydrolysates generate ||| ref 40 = [40]; PMID 26344130; doi:10.1016/j.jprot.2015.08.018; 40. Priyanto A.D. Doerksen R.J. Chang C.-I. Sung W.-C. Widjanarko S.B. Kusnadi J. Lin Y.-C. Wang T.-C. Hsu J.-L. Screening, discovery, and characterization of angiotensin-I converting enzyme inhibitor ||| ref 41 = [41]; PMID 29112398; doi:10.1021/acs.jafc.7b04522; 41. Orio L.P. Boschin G. Recca T. Morelli C.F. Ragona L. Francescato P. Arnoldi A. Speranza G. New ACE-inhibitory peptides from hemp seed ( Cannabis sativa L.) proteins J. Agric. Food Chem. 2017 65 10 ||| ref 42 = [42]; PMID 21381782; doi:10.1021/jf104998s; 42. Yang R. Zou Y. Yu N. Gu Z. Accumulation and identification of angiotensin-converting enzyme inhibitory peptides from wheat germ J. Agric. Food Chem. 2011 59 3598 3605 10.1021/jf104998s 21381782 ||| ...; settings: cited from earlier work
[4] = target: Angiotensin I-converting enzyme (UniProt P12821)
Angiotensin I-converting enzyme, sequence (P12821 30-1306): as the sequence (P12821 30-1306, species assumed) above

| Molecule | IC50 [1] | IC50 of ACE inhibitory activity (hydrolysis of hippuryl-L-histidyl-L-leucine by ACE, 37 °C, RP-HPLC read-out at 228 nm; synthetic peptide, nine concentrations) [4] | further results |
| --- | --- | --- | --- |
| CC(C)C[C@H](NC(=O)[C@H](C)N)C(=O)N[C@H](C(=O)N[C@@H](Cc1ccc(O)cc1)C(=O)O)C(C)C [ALVY] (H-ALVY-OH) | 7.03 ± 0.09 µM | – | Effect on Km [2]: increased with the increasing peptide concentration |
| CC(C)C[C@H](NC(=O)[C@@H](N)CC(C)C)C(=O)N[C@H](C(=O)N[C@@H](Cc1ccc(O)cc1)C(=O)O)C(C)C [LLVY] (H-LLVY-OH) | 87.8 ± 3.37 µM | – | – |
| FHAPWK [peptide from Cassia obtusifolia seeds] | – | – | IC50 ([3]; Cassia obtusifolia seeds, read-out: IC50 (Cassia obtusifolia seeds peptide)): 16.8 µM |
| LLAPHY [LLAPHY] | 15.9 ± 0.52 µM | – | – |
| LSTSTDVR-OH [LSTSTDVR] | > 167 µM | – | – |
| VSGAGRY [peptide from bitter melon seeds] | – | – | IC50 ([3]; bitter melon seeds, read-out: IC50 (bitter melon seeds peptide)): 8.6 µM |
| B1 | – | 7.03 µM | – |
| B2 | – | 87.8 µM | – |
| B3 | – | 15.9 µM | – |
| B4 | – | > 167 µM | – |
